Experiment [1] concerns the target T1, GST-Raf-RBD, GST fusion protein comprising the Ras Binding Domain of human Raf (Raf-RBD, residues 1-149) (human, UniProt P04049 1-149).
T1 construct: range 1-149; Immobilised on glutathione Sepharose beads; not shown: Glutathione S-transferase (GST) encoded by the pGEX-4T2 plasmid (Pharmacia)
Nature of the experiment: GST pull-down of in vitro 35S-labeled protein.

Experiment [2] addresses T2, N87A-GILZ, full mouse GILZ in which an Asparagine is mutated in Alanine, in vitro 35S-labeled (mouse, UniProt Q9Z2S7 1-137, [35S]-Methionine label).
T2 construct: range 1-137
T2 sequence (looked up): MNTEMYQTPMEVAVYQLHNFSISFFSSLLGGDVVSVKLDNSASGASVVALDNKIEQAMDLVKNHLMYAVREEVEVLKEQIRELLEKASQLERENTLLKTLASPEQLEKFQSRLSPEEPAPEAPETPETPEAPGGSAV
The experiment can be described thus: GST pull-down of in vitro 35S-labeled protein.

The target of experiment [3] is T3, ERK-1 in lysates of murine thymocytes (mouse, UniProt Q63844 2-380).
T3 construct: Detected together with ERK-2 by α-ERK-1/-2 antibodies; also called ERK-1/-2
T3 sequence (Q63844 2-380 limits assumed): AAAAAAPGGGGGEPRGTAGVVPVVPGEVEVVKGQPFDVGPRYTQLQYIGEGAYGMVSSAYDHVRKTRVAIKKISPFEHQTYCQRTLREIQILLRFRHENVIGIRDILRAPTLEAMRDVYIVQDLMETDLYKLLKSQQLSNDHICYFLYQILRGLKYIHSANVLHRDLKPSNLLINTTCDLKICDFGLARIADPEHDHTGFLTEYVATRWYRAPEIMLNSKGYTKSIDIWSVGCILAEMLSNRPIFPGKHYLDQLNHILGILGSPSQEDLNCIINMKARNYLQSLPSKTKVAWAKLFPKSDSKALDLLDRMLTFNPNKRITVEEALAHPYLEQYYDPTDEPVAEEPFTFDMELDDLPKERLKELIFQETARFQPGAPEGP
The experiment can be described thus: GST pull-down from murine thymocyte lysates, Western blot with α-ERK-1/-2. How it is done:
(§1) Extracts were prepared from the indicated cell, treated or untreated with DEX (10 microMolar), as previously described (Ayroldi E et al., 2001). GST or GST fusion proteins, loaded on Sepharose beads, were mixed with cell extracts in binding buffer (NaCl 250 milliMolar, HEPES (ph7.5) (pH 7.5) 50 milliMolar, EDTA 0.5 milliMolar, Nonidet P-40 0.1% (v/v), phenylmethylsulfonyl fluoride (PMSF) 0.2 milliMolar, dithiothreitol (DTT) 1 milliMolar, bovine serum albumin (BSA) 100 μg/ml), heated for 5 minutes at 42° C., incubated for 2 hours at 4° C., washed extensively with binding buffer, resuspended in loading buffer and analysed by SDS-PAGE and Western blot as described above. In the case of murine thymocytes extracts, the incubation with the beads was performed overnight and at 4° C. The α-MEK and α-ERK antibodies (Upstate Biotechnology) were used following manufacturer's instructions.
For orientation: In western blotting, separated proteins are transferred to a membrane and probed.

For experiment [4], the target named is T4, ERK-2 in lysates of murine thymocytes (mouse, UniProt P63085 2-358).
T4 construct: Detected together with ERK-1 by α-ERK-1/-2 antibodies; also called ERK-1/-2
The experiment is described as above. How it is done:
as §1

For experiment [5], the target named is T5, GST alone (Glutathione S-transferase, control) (UniProt P08515 1-218 = GST).
T5 construct: Control loaded on glutathione Sepharose beads; also called GST-protein alone
T5 sequence (P08515 whole entry): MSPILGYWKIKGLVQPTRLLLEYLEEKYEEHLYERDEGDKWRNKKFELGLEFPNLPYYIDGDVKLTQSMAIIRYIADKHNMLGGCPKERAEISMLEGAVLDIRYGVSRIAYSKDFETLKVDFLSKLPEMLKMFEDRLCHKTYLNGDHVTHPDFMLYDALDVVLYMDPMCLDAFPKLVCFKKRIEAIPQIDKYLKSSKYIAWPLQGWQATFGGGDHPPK
The experiment can be described thus: GST pull-down of in vitro 35S-labeled protein.

Experiment [6] addresses T5, GST alone (Glutathione S-transferase, …). Nature of the experiment: GST pull-down from thymocyte whole cell lysates, Western blot with α-GILZ. How it is done:
as §1

Data on 5 molecules can be found in US20050164906A1 (APPLIED RESEARCH SYSTEMS ARS HOLDING N V, published 2005).

B1: ΔN-GILZ, GILZ lacking the N-terminal region (first 8 amino acids of mGILZ fused with the residues 73-137), in vitro 35S-labeled (other)
chain: MNTEMYQTVEVLKEQIRELLEKNSQLERENTLLKTLASPEQLEKFQSRLSPEEPAPEAPETPETPEAPGGSAV
modifications: [35S]-Methionine label ; [35S]-methionine isotopic label from in vitro translation; letters unchanged
notes: also called DN-GILZ; 35S-ΔN-GILZ
B1: the binding result in experiment [1] was “no binding”.

B2: Glutathione S-transferase GILZ fusion protein (GST-GILZ), containing entire mouse GILZ (other, UniProt Q9Z2S7 1-137, looked up)
chain: MNTEMYQTPMEVAVYQLHNFSISFFSSLLGGDVVSVKLDNSASGASVVALDNKIEQAMDLVKNHLMYAVREEVEVLKEQIRELLEKNSQLERENTLLKTLASPEQLEKFQSRLSPEEPAPEAPETPETPEAPGGSAV
notes: range 1-137; Immobilised on glutathione Sepharose beads; Prepared as in Ayroldi E et al., 2001; not shown: Glutathione S-transferase (GST) encoded by the pGEX-4T2 plasmid (Pharmacia)
Turning to B2, the binding result in experiment [2], in experiment [3] and in experiment [4] was “no binding” in each case.

B3: in vitro 35S-labeled full GILZ (full-length mouse GILZ, in vitro translated) (other, UniProt Q9Z2S7 1-137, looked up)
chain: MNTEMYQTPMEVAVYQLHNFSISFFSSLLGGDVVSVKLDNSASGASVVALDNKIEQAMDLVKNHLMYAVREEVEVLKEQIRELLEKNSQLERENTLLKTLASPEQLEKFQSRLSPEEPAPEAPETPETPEAPGGSAV
modifications: [35S]-Methionine label
notes: range 1-137; also called 35S-GILZ; GILZ full-length protein
As for B3, in experiment [5], the binding result was “no binding”.

B4: GILZ, endogenous, in whole cell lysates of murine thymocytes (DEX-treated or untreated) (other, mouse, UniProt Q9Z2S7 1-137, looked up)
chain: MNTEMYQTPMEVAVYQLHNFSISFFSSLLGGDVVSVKLDNSASGASVVALDNKIEQAMDLVKNHLMYAVREEVEVLKEQIRELLEKNSQLERENTLLKTLASPEQLEKFQSRLSPEEPAPEAPETPETPEAPGGSAV
notes: also called mGILZ
Turning to B4, the binding result in experiment [6] was “no binding”.

B5: ΔC-GILZ, GILZ lacking the C-terminal region (first 97 amino acids of mouse GILZ), in vitro 35S-labeled (other)
chain: MNTEMYQTPMEVAVYQLHNFSTSFFSSLLGGDVVSVKLDNSASGASVVALDNKIEQAMDLVKNHLMYAVREEVEVLKEQIRELLEKNSQLERENTLL
modifications: [35S]-methionine isotopic label from in vitro translation; letters unchanged
notes: also called 35S-AC-GILZ
Regarding B5, the binding result in experiment [5] is “no binding”.
